We go through two molecules from patent US20240261333A1 (published 2024).

One assay has as its target RPL26 (human, UniProt P61254 1-145). The assay is described as follows: co-IP with anti-FLAG, mass spectrometry; lysate of cells with N-FLAG B3GNT2.
For a further assay, the target named is T1, NPM1 (human, UniProt P06748 1-294).
T1 construct: also called NP_001341935.1 (+1)
The assay is described as above.

The target in a further assay is T2, SLC27A4 (human, UniProt Q6P1M0 1-643).
T2 construct: also called NP_005085.2
The assay is described as above.

The target of the next assay is T3, CCT2 (human, UniProt P78371-2 1-488, limits assumed).
T3 construct: also called NP_001185771.1 (+1)
T3 sequence (looked up): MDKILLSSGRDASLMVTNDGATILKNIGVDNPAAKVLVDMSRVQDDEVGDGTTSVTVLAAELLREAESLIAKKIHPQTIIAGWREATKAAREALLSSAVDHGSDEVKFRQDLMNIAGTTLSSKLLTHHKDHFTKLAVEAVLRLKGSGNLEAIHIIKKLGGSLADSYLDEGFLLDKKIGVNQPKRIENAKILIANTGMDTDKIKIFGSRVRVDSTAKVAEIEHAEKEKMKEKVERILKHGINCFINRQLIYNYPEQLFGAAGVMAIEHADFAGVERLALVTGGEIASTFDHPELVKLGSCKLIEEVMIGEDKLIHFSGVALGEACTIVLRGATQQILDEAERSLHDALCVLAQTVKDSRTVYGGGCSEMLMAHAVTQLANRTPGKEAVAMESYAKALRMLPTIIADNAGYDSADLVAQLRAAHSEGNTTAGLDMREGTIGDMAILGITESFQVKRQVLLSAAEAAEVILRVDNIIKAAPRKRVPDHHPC
The description is as above.

In the next assay the target is T4, GALNT2 (human, UniProt Q10471 1-571, limits assumed).
T4 construct: also called NP_001278795.1 (+1)
The description is as above.

Another assay deals with RPL9 (human, UniProt P32969 1-192). The description is as above.
In a further assay the target is T5, EEF1A1 (UniProt P68104 2-462).
T5 construct: Endogenous protein found in the co-IP by mass spectrometry; also called NP_001393.1
T5 sequence (looked up): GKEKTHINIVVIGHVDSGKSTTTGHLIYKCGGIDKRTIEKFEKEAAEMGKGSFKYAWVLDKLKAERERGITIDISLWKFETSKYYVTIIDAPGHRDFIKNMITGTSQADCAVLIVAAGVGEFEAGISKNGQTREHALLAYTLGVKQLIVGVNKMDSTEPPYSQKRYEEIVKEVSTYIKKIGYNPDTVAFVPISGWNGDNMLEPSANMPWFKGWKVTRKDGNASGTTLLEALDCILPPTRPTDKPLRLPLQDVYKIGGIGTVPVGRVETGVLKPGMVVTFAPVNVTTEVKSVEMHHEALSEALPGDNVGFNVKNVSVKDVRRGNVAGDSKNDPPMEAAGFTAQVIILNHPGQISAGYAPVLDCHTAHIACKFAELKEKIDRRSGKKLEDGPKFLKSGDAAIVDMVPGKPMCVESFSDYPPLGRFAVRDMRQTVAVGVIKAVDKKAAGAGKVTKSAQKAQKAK
Briefly: co-IP with anti-FLAG, mass spectrometry; N-FLAG B3GNT2. The procedure: Cells were plated in 10-cm cell culture dishes and grown to 60-80% confluency. For each condition, two biological replicates were harvested for co-IP. Cells were washed with PBS and 4 mL of lysis buffer (20 mM HEPES, 1% Triton X-100, 150 mM NaCl, 1 mM EDTA, and 10% glycerol) containing protease inhibitor cocktail was added. Cells were scraped and lysate was incubated at 4° C. under rotary agitation for 1 h. Lysate was centrifuged at 14,000×g for 10 min at 4° C. Supernatant was transferred to a new tube and an aliquot was taken as the input. […] For Western blots, 10 μg/mL Chicken Anti-FLAG (Aves labs ET-DY100) and IgY control (R&D Systems AB-101-C) antibodies were biotinylated (Thermo Fisher Scientific 90407) and added to the respective conditions. Lysates with antibodies were incubated at 4° C. under rotary agitation overnight. For each mL of lysate, 50 μL of Pierce Protein A/G Magnetic Beads (Mass spectrometry; Thermo Fisher Scientific 88803) or Pierce Streptavidin Magnetic Beads (Western blot; Thermo Fisher Scientific 88817) was washed twice with lysis buffer. Lysates with antibodies were added to the beads and incubated at 4° C. under rotary agitation for 4 h. Beads were washed with lysis buffer 3 times and resuspended in lysis buffer for storage.
Magnetic beads were resuspended in 100 mM Tris pH 7.8, reduced, alkylated and digested with trypsin at 37° ° C. overnight. This solution was subjected to solid phase extraction to concentrate the peptides and remove unwanted reagents followed by injection onto a Shimadzu HPLC with fraction collector. Eight fractions were collected and after concentration were injected on a Waters NanoAcquity HPLC equipped with a self-packed Aeris 3 μm C18 analytical column 0.075 mm by 20 cm, (Phenomenex). Peptides were eluted using standard reverse-phase gradients. The effluent from the column was analyzed using a Thermo Orbitrap Elite mass spectrometer (nanospray configuration) operated in a data dependent manner for 54 minutes. The resulting fragmentation spectra were correlated against the known database using Proteome Discover 1.4 (Thermo Fisher Scientific).

T2 sequence (Q6P1M0 whole entry): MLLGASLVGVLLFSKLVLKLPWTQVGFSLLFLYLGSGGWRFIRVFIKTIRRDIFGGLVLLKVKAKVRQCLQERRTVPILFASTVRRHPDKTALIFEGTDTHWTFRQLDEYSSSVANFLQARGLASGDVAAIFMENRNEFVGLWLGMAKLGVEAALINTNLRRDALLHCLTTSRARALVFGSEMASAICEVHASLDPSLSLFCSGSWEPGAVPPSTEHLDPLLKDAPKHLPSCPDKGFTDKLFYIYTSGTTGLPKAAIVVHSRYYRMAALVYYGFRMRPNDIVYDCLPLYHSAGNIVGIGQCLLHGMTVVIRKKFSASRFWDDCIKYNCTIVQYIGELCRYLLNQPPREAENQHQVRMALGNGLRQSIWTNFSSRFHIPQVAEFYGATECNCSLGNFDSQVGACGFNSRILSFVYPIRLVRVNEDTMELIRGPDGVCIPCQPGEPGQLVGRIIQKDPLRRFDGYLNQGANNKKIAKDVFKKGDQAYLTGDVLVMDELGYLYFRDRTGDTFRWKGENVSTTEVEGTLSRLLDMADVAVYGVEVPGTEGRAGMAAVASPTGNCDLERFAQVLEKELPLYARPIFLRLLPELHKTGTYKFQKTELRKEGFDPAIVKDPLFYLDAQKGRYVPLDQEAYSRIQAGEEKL
T4 sequence (Q10471 whole entry): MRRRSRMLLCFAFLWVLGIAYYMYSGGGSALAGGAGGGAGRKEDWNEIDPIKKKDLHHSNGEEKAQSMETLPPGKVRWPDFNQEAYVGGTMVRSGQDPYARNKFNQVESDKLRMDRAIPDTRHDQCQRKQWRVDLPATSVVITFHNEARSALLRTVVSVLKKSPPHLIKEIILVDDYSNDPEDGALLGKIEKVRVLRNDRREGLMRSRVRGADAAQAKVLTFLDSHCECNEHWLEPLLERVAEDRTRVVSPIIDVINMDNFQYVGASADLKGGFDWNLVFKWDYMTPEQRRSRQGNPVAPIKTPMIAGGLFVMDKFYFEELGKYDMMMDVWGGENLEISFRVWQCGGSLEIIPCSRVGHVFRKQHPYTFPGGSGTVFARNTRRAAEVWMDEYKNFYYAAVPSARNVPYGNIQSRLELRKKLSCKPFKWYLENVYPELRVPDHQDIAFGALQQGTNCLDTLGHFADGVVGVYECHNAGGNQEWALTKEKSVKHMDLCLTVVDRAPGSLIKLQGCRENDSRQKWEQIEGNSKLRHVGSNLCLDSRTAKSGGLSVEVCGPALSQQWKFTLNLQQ
T1 sequence (P06748 whole entry): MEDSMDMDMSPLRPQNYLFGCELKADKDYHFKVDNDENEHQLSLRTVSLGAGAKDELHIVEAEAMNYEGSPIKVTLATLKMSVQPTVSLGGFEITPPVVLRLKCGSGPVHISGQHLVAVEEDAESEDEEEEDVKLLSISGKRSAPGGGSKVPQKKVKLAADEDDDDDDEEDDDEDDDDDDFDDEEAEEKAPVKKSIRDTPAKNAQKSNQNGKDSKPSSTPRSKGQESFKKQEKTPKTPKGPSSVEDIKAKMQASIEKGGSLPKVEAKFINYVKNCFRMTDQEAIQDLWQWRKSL

B1: N-terminal FLAG tagged B3GNT2 (enzyme, human, UniProt Q9NY97 1-397, looked up)
chain: MSVGRRRIKLLGILMMANVFIYFIMEVSKSSSQEKNGKGEVIIPKEKFWKISTPPEAYWNREQEKLNRQYNPILSMLTNQTGEAGRLSNISHLNYCEPDLRVTSVVTGFNNLPDRFKDFLLYLRCRNYSLLIDQPDKCAKKPFLLLAIKSLTPHFARRQAIRESWGQESNAGNQTVVRVFLLGQTPPEDNHPDLSDMLKFESEKHQDILMWNYRDTFFNLSLKEVLFLRWVSTSCPDTEFVFKGDDDVFVNTHHILNYLNSLSKTKAKDLFIGDVIHNAGPHRDKKLKYYIPEVVYSGLYPPYAGGGGFLYSGHLALRLYHITDQVHLYPIDDVYTGMCLQKLGLVPEKHKGFRTFDIEEKNKNNICSYVDLMLVHSRKPQEMIDIWSQLQSAHLKC
notes: Bait of the co-IP; pulled down with mouse anti-FLAG (Millipore Sigma F3165) from cell lysate; also called N-FLAG B3GNT2; N-term FLAG; not shown: N-terminal FLAG tag
With B1, the “co-IP mass spectrometry count” value with RPL26 was determined as 7; in the assay with NPM1 it was 0; with SLC27A4, 0; with CCT2, 0; with GALNT2, 0; with RPL9, 0.

B2: N-terminal FLAG tagged B3GNT2 (enzyme, human, UniProt Q9NY97 1-397, looked up)
chain: MSVGRRRIKLLGILMMANVFIYFIMEVSKSSSQEKNGKGEVIIPKEKFWKISTPPEAYWNREQEKLNRQYNPILSMLTNQTGEAGRLSNISHLNYCEPDLRVTSVVTGFNNLPDRFKDFLLYLRCRNYSLLIDQPDKCAKKPFLLLAIKSLTPHFARRQAIRESWGQESNAGNQTVVRVFLLGQTPPEDNHPDLSDMLKFESEKHQDILMWNYRDTFFNLSLKEVLFLRWVSTSCPDTEFVFKGDDDVFVNTHHILNYLNSLSKTKAKDLFIGDVIHNAGPHRDKKLKYYIPEVVYSGLYPPYAGGGGFLYSGHLALRLYHITDQVHLYPIDDVYTGMCLQKLGLVPEKHKGFRTFDIEEKNKNNICSYVDLMLVHSRKPQEMIDIWSQLQSAHLKC
notes: FLAG-tagged ORF overexpressed in cells; bait of the anti-FLAG co-IP; also called N-FLAG B3GNT2; N-term FLAG; not shown: FLAG tag at the N-terminus
For B2, in the assay with EEF1A1, the “co-IP mass spectrometry count” value turned out to be 13.
